According to patent US20250179176A1, “ANTI-TIGIT ANTIBODIES AND USES OF THE SAME” (ARCUS BIOSCIENCES, INC., priority 2022, published 2025):

How the values were obtained:
[1] = Clinical safety of domvanalimab, 99 participants (AB154CSP0001 and ARC-7): TEAEs, related AEs, SAEs; format: in vivo, human; conditions: for TEAE Diarrhoea / TEAE Fatigue / TEAE Nausea / TEAE Pruritus / Any TEAEs: Table 15
[2] = Population PK model and simulations; set-up: species or system human
Experimental: All available PK data from this study were combined in a population PK model. […] The population PK model confirmed that the PK of domvanalimab was dose-linear over the dose range and consistent across the dosing regimens.
Simulations were run with the model of n=500 patients each at 10 mg/kg Q2W, 15 mg/kg Q3W, and 20 mg/kg Q4W dosing regimens for 24 weeks.

B1: domvanalimab: anti-TIGIT antibody with engineered IgG1 Fc, reduced FcγR binding; heavy chain SEQ ID NO: 12, light chain SEQ ID NO: 13 (antibody)
heavy: EVQLVESGGGLVQPGGSLRLSCAASGFTFSNFGMHWVRQAPGKGLEWVAFISSGSSSIYYADTVKGRFTISRDNAKNSLYLQMNSLRAEDTAVYYCARMRLDYYAMDYWGQGTMVTVSSASTKGPSVFPLAPSSKSTSGGTAALGCLVKDYFPEPVTVSWNSGALTSGVHTFPAVLQSSGLYSLSSVVTVPSSSLGTQTYICNVNHKPSNTKVDKKVEPKSCDKTHTCPPCPAPEAAGGPSVFLFPPKPKDTLMISRTPEVTCWVDVSHEDPEVKFNWYVDGVEVHNAKTKPREEQYNSTYRWSVLTVLHQDWLNGKEYKCKVSNKALPAPIEKTISKAKGQPREPQVYTLPPSRDELTKNQVSLTCLVKGFYPSDIAVEWESNGQPENNYKTTPPVLDSDGSFFLYSKLTVDKSRWQQGNVFSCSVMHEALHNHYTQKSLSLSPGK
light: DIQMTQSPSSLSASVGDRVTITCRASKSISKYLAWYQQKPGKAPKLLIYSGSTLQSGVPSRFSGSGSGTDFTLTISSLQPEDFATYYCQQHNEYPWTFGGGTKVEIKRTVAAPSVFIFPPSDEQLKSGTASWCLLNNFYPREAKVQWKVDNALQSGNSQESVTEQDSKDSTYSLSSTLTLSKADYEKHKVYACEVTHQGLSSPVTKSFNRGEC
[1]; ARC-7 (n = 37)
  TEAE Diarrhoea: 5 (13.5%)
  TEAE Fatigue: 3 (8.1%)
  TEAE Nausea: 4 (10.8%)
  TEAE Pruritus: 4 (10.8%)
[1]; Total (n = 99)
  Any TEAEs: 84 (84.8%)
  TEAE Diarrhoea: 10 (10.1%)
  TEAE Fatigue: 12 (12.1%)
  TEAE Nausea: 13 (13.1%)
  TEAE Pruritus: 10 (10.1%)
[1]; n = 62
  Any TEAEs: 53 (85.5%)
  TEAE Diarrhoea: 5 (8.1%)
  TEAE Fatigue: 9 (14.5%)
  TEAE Nausea: 9 (14.5%)
  TEAE Pruritus: 6 (9.7%)
[1]; Total (N = 99)
  Domvanalimab-related AE: Abdominal distension: 1 ( 1.0%)
  Domvanalimab-related AE: Abdominal pain: 1 ( 1.0%)
  Domvanalimab-related AE: Adrenal insufficiency: 1 ( 1.0%)
  Domvanalimab-related AE: Anaemia: 1 ( 1.0%)
  Domvanalimab-related AE: Any AEs: 50 (50.5%)
  Domvanalimab-related AE: Arthralgia: 4 (4.0%)
  Domvanalimab-related AE: Arthritis: 1 ( 1.0%)
  Domvanalimab-related AE: Aspartate aminotransferase increased: 1 ( 1.0%)
  Domvanalimab-related AE: Asthenia: 1 ( 1.0%)
  Domvanalimab-related AE: Back pain: 2 ( 2.0%)
  Domvanalimab-related AE: Constipation: 2 ( 2.0%)
  Domvanalimab-related AE: Cough: 1 ( 1.0%)
  Domvanalimab-related AE: Decreased appetite: 3 (3.0%)
  Domvanalimab-related AE: Delirium: 1 ( 1.0%)
  Domvanalimab-related AE: Diarrhoea: 5 (5.1%)
  Domvanalimab-related AE: Dry eye: 1 ( 1.0%)
  Domvanalimab-related AE: Dry mouth: 1 ( 1.0%)
  Domvanalimab-related AE: Dyspnoea exertional: 1 ( 1.0%)
  Domvanalimab-related AE: Fatigue: 6 (6.1%)
  Domvanalimab-related AE: Flank pain: 1 ( 1.0%)
  Domvanalimab-related AE: Generalised oedema: 1 ( 1.0%)
  Domvanalimab-related AE: Headache: 4 (4.0%)
  Domvanalimab-related AE: Hot flush: 1 ( 1.0%)
  Domvanalimab-related AE: Hyperglycaemia: 1 ( 1.0%)
  Domvanalimab-related AE: Hyperkalaemia: 1 ( 1.0%)
  Domvanalimab-related AE: Hyperthyroidism: 3 (3.0%)
  Domvanalimab-related AE: Hypokalaemia: 1 ( 1.0%)
  Domvanalimab-related AE: Hypothyroidism: 4 (4.0%)
  Domvanalimab-related AE: Immune-mediated hepatitis: 2 ( 2.0%)
  Domvanalimab-related AE: Influenza like illness: 1 ( 1.0%)
  Domvanalimab-related AE: Infusion related reaction: 2 ( 2.0%)
  Domvanalimab-related AE: Infusion site pain: 1 ( 1.0%)
  Domvanalimab-related AE: Liver function test increased: 1 ( 1.0%)
  Domvanalimab-related AE: Lymphopenia: 1 ( 1.0%)
  Domvanalimab-related AE: Malaise: 2 ( 2.0%)
  Domvanalimab-related AE: Muscle spasms: 1 ( 1.0%)
  Domvanalimab-related AE: Musculoskeletal chest pain: 1 ( 1.0%)
  Domvanalimab-related AE: Myalgia: 1 ( 1.0%)
  Domvanalimab-related AE: Nail disorder: 1 ( 1.0%)
  Domvanalimab-related AE: Nasal mucosal disorder: 1 ( 1.0%)
  Domvanalimab-related AE: Nausea: 6 (6.1%)
  Domvanalimab-related AE: Oral pain: 1 ( 1.0%)
  Domvanalimab-related AE: Pain: 2 ( 2.0%)
  Domvanalimab-related AE: Pancreatitis: 1 ( 1.0%)
  Domvanalimab-related AE: Paraesthesia: 1 ( 1.0%)
  Domvanalimab-related AE: Peripheral sensory neuropathy: 1 ( 1.0%)
  Domvanalimab-related AE: Pneumonitis: 2 ( 2.0%)
  Domvanalimab-related AE: Pruritus: 9 (9.1%)
  Domvanalimab-related AE: Pruritus generalised: 1 ( 1.0%)
  Domvanalimab-related AE: Pulmonary pain: 1 ( 1.0%)
  Domvanalimab-related AE: Pyrexia: 5 (5.1%)
  Domvanalimab-related AE: Rash: 4 (4.0%)
  Domvanalimab-related AE: Rash maculo-papular: 6 (6.1%)
  Domvanalimab-related AE: Rash pruritic: 1 ( 1.0%)
  Domvanalimab-related AE: Rhinorrhoea: 1 ( 1.0%)
  Domvanalimab-related AE: Transaminases increased: 1 ( 1.0%)
  Domvanalimab-related AE: Tumour flare: 3 (3.0%)
  Domvanalimab-related AE: Tumour pain: 1 ( 1.0%)
  Domvanalimab-related AE: Vomiting: 1 ( 1.0%)
[1]; clinical data to date
  tolerability in cancer patients: well tolerated
[2]; estimated based on the population PK model
  terminal half-life: 19.9 days
[2]; population PK model
  volume of distribution: approximated plasma volume
[2]; population PK model, 0.5-20 mg/kg, Q2W, Q3W, Q4W
  dose linearity of PK: dose-linear
